Data taken from PMC6829864, “Determination of Ligand Profiles for Pseudomonas aeruginosa Solute Binding Proteins” (International Journal of Molecular Sciences, 2019).
Entries after “also recorded” stand apart in the source; their conditions may differ. Each block holds one compound with its values, some of them ahead of it. Where a SMILES comes first, the peptide text is derived from it.

Assays:
PA4497 (dppA2) = molecular target: T1, PA4497 (dppA2) (Pseudomonas aeruginosa, UniProt Q9HVS4); assay type: binding; conditions: arrays PM3B, PM6, PM7, PM8
T1 sequence (Q9HVS4 25-532): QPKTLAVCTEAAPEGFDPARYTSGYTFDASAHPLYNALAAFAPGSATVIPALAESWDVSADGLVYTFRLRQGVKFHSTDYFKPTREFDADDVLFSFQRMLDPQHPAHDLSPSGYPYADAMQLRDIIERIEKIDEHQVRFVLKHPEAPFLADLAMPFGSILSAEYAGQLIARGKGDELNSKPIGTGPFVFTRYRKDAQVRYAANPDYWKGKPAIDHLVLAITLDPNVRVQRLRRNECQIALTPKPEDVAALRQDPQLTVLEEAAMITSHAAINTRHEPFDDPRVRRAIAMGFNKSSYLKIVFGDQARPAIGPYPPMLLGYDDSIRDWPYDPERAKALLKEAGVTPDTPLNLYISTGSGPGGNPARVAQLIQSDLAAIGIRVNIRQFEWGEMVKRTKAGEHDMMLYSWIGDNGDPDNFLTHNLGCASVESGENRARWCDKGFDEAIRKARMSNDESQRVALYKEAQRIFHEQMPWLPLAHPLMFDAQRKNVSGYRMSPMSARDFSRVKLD

PA1863 (modA) = PA1863 (modA) (Pseudomonas aeruginosa, UniProt Q9I2N2); assay: biochemical; assay type: binding, Pseudomonas aeruginosa PAO1
Chain of PA1863 (modA) (Q9I2N2 24-251): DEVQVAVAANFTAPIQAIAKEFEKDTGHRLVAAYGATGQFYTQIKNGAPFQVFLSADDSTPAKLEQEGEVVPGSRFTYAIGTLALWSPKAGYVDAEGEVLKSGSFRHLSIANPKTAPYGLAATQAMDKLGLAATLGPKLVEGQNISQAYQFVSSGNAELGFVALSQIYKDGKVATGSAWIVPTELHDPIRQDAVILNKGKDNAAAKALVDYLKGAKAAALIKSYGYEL

PA1493 (cysP) = PA1493 (cysP) (Pseudomonas aeruginosa, UniProt Q9I3L9); assay: biochemical; assay type: binding, Pseudomonas aeruginosa PAO1; conditions: PA1493 (cysP); 25 °C
Chain of PA1493 (cysP) (Q9I3L9 23-332): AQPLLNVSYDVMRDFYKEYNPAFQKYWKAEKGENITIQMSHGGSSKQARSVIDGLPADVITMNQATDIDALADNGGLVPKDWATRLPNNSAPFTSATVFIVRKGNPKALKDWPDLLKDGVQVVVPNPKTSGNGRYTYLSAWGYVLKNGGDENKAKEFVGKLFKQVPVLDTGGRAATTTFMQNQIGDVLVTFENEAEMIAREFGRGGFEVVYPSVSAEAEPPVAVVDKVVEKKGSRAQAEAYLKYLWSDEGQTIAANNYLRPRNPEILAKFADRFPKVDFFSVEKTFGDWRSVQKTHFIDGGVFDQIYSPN

[1] = system: Pseudomonas aeruginosa PAO1; assay type: cell-based; conditions: capillary assay; chemoeffector 1 mM, except molybdate 0.1 mM; 30 min
PA4913 = PA4913 (Pseudomonas aeruginosa, UniProt Q9HUQ0); assay: DSF thermal shift ligand screening, PA4913; assay type: binding, Pseudomonas aeruginosa PAO1; conditions: Tm change vs ligand-free protein
Chain of PA4913 (Q9HUQ0 28-374): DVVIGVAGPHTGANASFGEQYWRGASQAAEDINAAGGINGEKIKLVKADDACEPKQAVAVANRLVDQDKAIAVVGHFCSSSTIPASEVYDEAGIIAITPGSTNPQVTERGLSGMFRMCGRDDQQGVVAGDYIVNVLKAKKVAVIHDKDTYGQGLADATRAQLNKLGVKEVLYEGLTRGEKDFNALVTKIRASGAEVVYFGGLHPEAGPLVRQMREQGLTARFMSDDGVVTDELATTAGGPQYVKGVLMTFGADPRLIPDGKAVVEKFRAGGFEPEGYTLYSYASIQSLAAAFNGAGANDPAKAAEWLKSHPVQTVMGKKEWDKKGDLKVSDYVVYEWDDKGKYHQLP

[2] = molecular target: PA4500 (DppA3) (Pseudomonas aeruginosa PAO1) (UniProt Q9HVS1); assay: ITC
Chain of PA4500 (DppA3) (Pseudomonas aeruginosa PAO1) (Q9HVS1 25-533): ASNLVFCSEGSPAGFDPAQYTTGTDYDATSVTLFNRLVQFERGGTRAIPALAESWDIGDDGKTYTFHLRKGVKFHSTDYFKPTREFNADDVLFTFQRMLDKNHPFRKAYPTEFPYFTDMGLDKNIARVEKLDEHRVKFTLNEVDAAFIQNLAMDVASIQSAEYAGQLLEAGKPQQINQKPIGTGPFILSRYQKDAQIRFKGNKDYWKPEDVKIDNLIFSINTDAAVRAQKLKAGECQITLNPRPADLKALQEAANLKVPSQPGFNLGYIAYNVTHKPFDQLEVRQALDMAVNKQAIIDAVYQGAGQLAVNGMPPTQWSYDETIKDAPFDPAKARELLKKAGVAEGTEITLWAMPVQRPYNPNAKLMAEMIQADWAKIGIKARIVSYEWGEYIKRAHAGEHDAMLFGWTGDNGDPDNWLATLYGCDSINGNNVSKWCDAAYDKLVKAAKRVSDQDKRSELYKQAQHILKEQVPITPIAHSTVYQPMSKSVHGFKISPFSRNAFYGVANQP

[3] = molecular target: PA4500 (DppA3) solute binding protein of Pseudomonas aeruginosa PAO1 (Pseudomonas aeruginosa PAO1) (UniProt Q9HVS1); assay: differential scanning fluorimetry thermal shift assay
Chain of PA4500 (DppA3) solute binding protein of Pseudomonas aeruginosa PAO1 (Pseudomonas aeruginosa PAO1) (Q9HVS1 25-533): as above

[4] = molecular target: PA4497 (DppA2) solute binding protein of Pseudomonas aeruginosa PAO1 (Pseudomonas aeruginosa PAO1) (UniProt Q9HVS4); assay: as above

- Tm DSF (Tm increase) (PA4497 (dppA2)): 5.0 °C
Compound: CC(C)CC(N)C(=O)NC(CC(C)C)C(=O)NC(CC(C)C)C(=O)O (stereo not drawn) [Leu-Leu-Leu] (H-Leu-Leu-Leu-OH; configuration not given here)

Compound: [O]=[Mo](=[O])([O-])[O-] [Molybdate]
- Kd (PA1863 (modA); Affinity by ITC, PA1863 (modA), value as printed in text): ~10 nM
- Kd (PA1863 (modA); KD by ITC, PA1863 (modA), 25 °C): 10 nM
- No Binding Observed by ITC (PA1493 (cysP)): did not show any binding

- Tm DSF (Tm increase) (PA4497 (dppA2)): 8.3 °C
Compound: N[C@@H](Cc1ccccc1)C(=O)NCC(=O)NCC(=O)O [Phe-Gly-Gly] (H-Phe-Gly-Gly-OH)

Compound: CC(C)[C@H](N)C(=O)N[C@@H](Cc1ccc(O)cc1)C(=O)N[C@H](C(=O)O)C(C)C [Val-Tyr-Val] (H-Val-Tyr-Val-OH)
- Chemotaxis [1]: Yes (Positive chemotaxis was considered when the number of bacterial cells per capillary was superior to 5000.)
- Tm DSF (Tm increase) (PA4497 (dppA2)): 5.0 °C

Compound: [O]=[V]([O-])([O-])[O-] [Vanadate]
- No Binding Observed by ITC (PA1863 (modA)): did not reveal any binding

Compound: [O]=[Mn](=[O])([O-])[O-] [manganate]
- No Binding Observed by ITC (PA1863 (modA)): did not reveal any binding

Compound: O=[Se](O)O [selenite]
- No Binding Observed by ITC (PA1493 (cysP)): did not show any binding

Compound: CCC(N)C(=O)O (stereo not drawn) [α-aminobutyrate]
- Tm DSF (Tm increase) (PA4913): 8.1 °C

Compound: Ala-Ala (peptide)
- Ka [2]: 4.71e+06 M⁻¹
- Tm increase (DSF) [3]: 11.3 °C

Compound: Ala-Ala-Ala (peptide)
- Tm increase (DSF) [4]: 9.1 °C

Compound: Ala-His (peptide)
- Ka [2]: 134000 M⁻¹
- Tm increase (DSF) [3]: 3 °C

Compound: Ala-Phe (peptide)
- Ka [2]: 162000 M⁻¹
- Tm increase (DSF) [3]: 2 °C

Compound: Ala-Thr (peptide)
- Ka [2]: 1.09e+06 M⁻¹
- Tm increase (DSF) [3]: 7 °C

Compound: Gly-Gly-Ala (peptide)
- Tm increase (DSF) [4]: 7.6 °C

Compound: Gly-Gly-Gly (peptide)
- Tm increase (DSF) [4]: 4.4 °C

Compound: Gly-Gly-Ile (peptide)
- Tm increase (DSF) [4]: 5.1 °C

Compound: Gly-Gly-Phe (peptide)
- Tm increase (DSF) [4]: 3.7 °C

Compound: Gly-Phe-Phe (peptide)
- Tm increase (DSF) [4]: 6.6 °C

Compound: Gly-Val (peptide)
- Ka [2]: 157000 M⁻¹
- Tm increase (DSF) [3]: 2 °C

Compound: Leu-Gly-Gly (peptide)
- Tm increase (DSF) [4]: 3.2 °C

Compound: Leu-Leu-Leu (peptide)
- Tm increase (DSF) [4]: 5 °C

Compound: Phe-Gly-Gly (peptide)
- Tm increase (DSF) [4]: 8.3 °C

Compound: Tungstate
- Chemotaxis [1]: No (Positive chemotaxis was considered when the number of bacterial cells per capillary was superior to 5000.)
- KD by ITC (PA1863 (modA); PA1863 (modA), 25 °C): ultra-tightly; also recorded: Ultratight

Compound: Val-Tyr-Val (peptide)
- Tm increase (DSF) [4]: 5 °C

Compound: phosphate
- No Binding Observed by ITC (PA1493 (cysP)): did not show any binding
